The values below come from patent US20230272056A1 (Merck Sharp & Dohme, published 2023).

What is called Kd is the free concentration of one partner at which half of the binding sites on the other are occupied at equilibrium, for simple one-to-one binding. The low end stands for tighter binding, the high end for weaker binding. For orientation: koff means a measure of how fast the partners let go of each other. One may read the kon as the second-order rate constant of association.

The target in test [1] is human LAP-TGFβ1 expressed on P3U1 cells (human, UniProt P01137 30-390). Nature of the test: cell-based or functional assay.
Sequence of human LAP-TGFβ1 expressed on P3U1 cells (P01137 30-390): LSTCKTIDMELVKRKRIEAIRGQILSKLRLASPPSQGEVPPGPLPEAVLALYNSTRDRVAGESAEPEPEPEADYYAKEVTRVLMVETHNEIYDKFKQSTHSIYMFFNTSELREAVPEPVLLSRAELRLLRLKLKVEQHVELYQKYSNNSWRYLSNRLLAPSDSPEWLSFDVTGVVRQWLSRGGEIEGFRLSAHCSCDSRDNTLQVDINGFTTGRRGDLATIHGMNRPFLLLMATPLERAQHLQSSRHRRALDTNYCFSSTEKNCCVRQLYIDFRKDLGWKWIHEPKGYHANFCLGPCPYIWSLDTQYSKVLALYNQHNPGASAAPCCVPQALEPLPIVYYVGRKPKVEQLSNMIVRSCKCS
Test [2] has as its target T1, human LAP-TGFβ1 (construct not stated) (human, UniProt P01137 30-390).
T1 construct: also called human LAP-TGFβ isoform 1; titrant
Nature of the test: KinExA, mAb as constant binding partner. As to the method:
An orthogonal kinetic exclusion assay (KinExA) method was used in this study to measure the affinities of affinity-matured anti-LAP-TGFβ1 antibodies (referred to as the constant binding partner, CBP) and human LAP-TGFβ1 (referred to as the titrant). To determine the free CBP concentration in solution, biotinylated human LAP-TGFβ1 coated PMMA (Sapidyne, catalog 440176) beads were prepared by first coating with biotin-BSA (ThermoScientific, catalog 29130) followed by streptavidin (Invitrogen, catalog S888), and a final coat with biotinylated human LAP-TGFβ1-Fc.
For association rate analysis, an experimentally optimized constant concentration of CBP and titrant, were mixed 1:1 and free CBP was measured at timed intervals ranging from 15 to 10000 seconds. […] The data were analyzed with KinExA Pro software (version 4.4.26) where the free CBP binding signals were converted into percent free response, plotted against time (seconds) and processed with the n-curve software “Kinetics, Direct” analysis method.
For equilibrium affinity analysis, two experimentally optimized CBP concentrations were combined with 1:2 serially diluted titrant, human LAP-TGFβ1, and incubated at room temperature to achieve equilibrium. […] The data was analyzed with KinExA Pro software (version 4.4.26) where the free CBP binding signals were converted into percent free response and plotted against the titrant concentration series. The equilibrium KD was determined by processing with n-curve software “Equilibrium” analysis method.
On the technique in general: In KinExA the mixture passes briefly over coated beads that capture the unbound partner.

In test [3] the target is T2, human LAP-TGFB1 Fc fusion (human).
T2 construct: also called human LAP-TGFβ1-Fc; human LAP-TGFβ-Fc isoform 1
T2 sequence (chain, as listed by the source limits assumed): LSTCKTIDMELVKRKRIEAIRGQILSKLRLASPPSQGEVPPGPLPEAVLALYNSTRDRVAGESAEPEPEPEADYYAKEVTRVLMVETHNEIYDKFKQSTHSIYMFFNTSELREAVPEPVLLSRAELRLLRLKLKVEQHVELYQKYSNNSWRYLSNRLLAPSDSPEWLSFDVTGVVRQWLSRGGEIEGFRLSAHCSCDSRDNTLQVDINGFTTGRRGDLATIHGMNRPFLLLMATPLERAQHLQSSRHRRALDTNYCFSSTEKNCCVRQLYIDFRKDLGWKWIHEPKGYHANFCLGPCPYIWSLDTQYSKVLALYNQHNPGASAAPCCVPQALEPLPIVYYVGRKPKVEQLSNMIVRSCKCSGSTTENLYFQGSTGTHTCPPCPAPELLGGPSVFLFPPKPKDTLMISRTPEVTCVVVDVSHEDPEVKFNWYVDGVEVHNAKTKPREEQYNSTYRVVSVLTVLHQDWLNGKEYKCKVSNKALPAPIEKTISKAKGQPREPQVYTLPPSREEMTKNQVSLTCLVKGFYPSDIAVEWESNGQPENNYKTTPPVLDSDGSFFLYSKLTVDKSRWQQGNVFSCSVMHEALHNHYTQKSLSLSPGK
In words: SPR pH 7.4, antigen captured on Fab 54BLH. The text has this:
(§1) A Series S C1 sensor chip (Cytiva, catalog BR100535) was immobilized with low densities of high affinity Fab 54BLH on a Biacore T200 instrument with 1×HBS-EP+(Teknova, catalog H8022). This surface served as a monovalent capture surface for a low-density layer of heterodimer human LAP-TGFβ1 complex leaving the second binding site exposed for monovalent kinetic binding analysis with both mAbs and Fabs. Immobilized flow cell 1 served as the reference and flow cells 2, 3 and 4 were used to evaluate the binding interaction between human LAP-TGFβ1 and yeast display mutant mAbs and Fabs.
(§2) Approximately 15-25 RU of human LAP-TGFβ1-Fc was captured to the Fab capture surface followed by injection of 1:3 serially diluted Fabs and mAbs from 6 nM to 0.07 nM (Fabs: 54BLH, 55BLH, 60BLH, 63BLH, 64BLH-mAbs: 69BLH, 70BLH) and 1:3 serially diluted Fab and mAbs from 60 nM to 0.74 nM (Fabs: 59BLH, 66BLH, 67BLH—mAbs: 74BLH, 75BLH, 78BLH, 79BLH, 81BLH, 82BLH) including 0 nM. The binding data was double referenced by subtraction of signal from a reference flow cell and the 0 nM injections for evaluation of Fabs and mAbs respectively. Binding rate constants were calculated/determined by fitting the data with a 1:1 binding model (Cytiva Biacore T200 Evaluation software 3.0).

Test [4] has as its target T2, human LAP-TGFB1 Fc fusion. Nature of the test: SPR pH 6.0, antigen captured on Fab 54BLH.
Text: as §1, §2

T1 sequence (P01137 30-390 limits assumed): as the sequence (P01137 30-390) above

B1: 16BLM (antibody, human IgG1, kappa, L234A L235A, V domains shown)
VH: EVQLVQSGAEVKKPGASVKVSCKASGYTFTSYDMHWVRQAPGQGLEWMGRIDPQSGGIKYAQKFQGRATLTVDTSTSTAYMELSRLRSDDTAVYYCARWDYGGYFDVWGQGTLVTVSS
VL: DIQMTQSPSSLSASVGDRVTITCRASQDIYNYLNWYQQKPGKAVKLLIYYTSVLETGVPSRFSGSGSGTDYTLTISSLQPEDFATYFCQQGDTLPWTFGQGTKLEIKR
notes: IgG1 L234A L235A D265S/kappa; also called 79BLH; 52BMD
As for B1, in test [1], the “Average EC50” value is 0.104 µg/mL, the “ELISA assay 2 EC50” value was determined as 0.126 µg/mL and the “ELISA assay #1 EC50” value came to 0.0816 µg/mL. In test [2], binding was characterised by a dissociation constant (Kd) of 0.00275 nM, the off-rate constant (koff) was 1.38e-05 s⁻¹ and the kon stood at 5.03e+06 M⁻¹ s⁻¹. In test [3], the “Fab/mAb KD Ratio” value worked out at 1.6, binding was characterised by a dissociation constant (Kd) of 0.038 nM, the koff came out at 0.000552 s⁻¹ and the on-rate constant (kon) was 1.44e+07 M⁻¹ s⁻¹. Moreover, in test [4], the “Fab/mAb KD Ratio” value was found to be 1.6, the equilibrium dissociation constant (Kd) came to 0.11 nM, the off-rate constant (koff) was 0.00122 s⁻¹ and the kon is 1.12e+07 M⁻¹ s⁻¹.

B2: 12BLM (antibody, human IgG1, kappa, L234A L235A, V domains shown)
VH: EVQLVQSGAEVKKPGASVKVSCKASGYTFTSYDMHWVRQAPGQGLEWMGRIDPQSGGVKYAQKFQGRATLTVDTSTSTAYMELSRLRSDDTAVYYCARWDYGGYFDVWGQGTLVTVSS
VL: DIQMTQSPSSLSASVGDRVTITCRASQDIYNYLNWYQQKPGKAVKLLIYYTSVLETGVPSRFSGSGSGTDYTLTISSLQPEDFATYFCQQGDELPWTFGQGTKLEIKR
notes: IgG1 L234A L235A D265S/kappa; also called 75BLH; 48BMD
As for B2, in test [1], the “Average EC50” value was 0.063 µg/mL, the “ELISA assay 2 EC50” value stood at 0.096 µg/mL and the “ELISA assay #1 EC50” value worked out at 0.0295 µg/mL. In test [2], this molecule registered an equilibrium dissociation constant (Kd) of 0.000367 nM, a koff of 7.71e-06 s⁻¹ and a kon of 2.04e+07 M⁻¹ s⁻¹. In test [3], the “Fab/mAb KD Ratio” value was found to be 3.2, the equilibrium dissociation constant (Kd) amounted to 0.0111 nM, the koff is 0.000212 s⁻¹ and the on-rate constant (kon) is 1.91e+07 M⁻¹ s⁻¹. For the same molecule, in test [4], the “Fab/mAb KD Ratio” value is 2.2, the dissociation constant Kd worked out at 0.136 nM, the off-rate (koff) was 0.000936 s⁻¹ and the kon stood at 6.86e+06 M⁻¹ s⁻¹.

B3: 15BLM (antibody, human IgG1, kappa, L234A L235A, V domains shown)
VH: EVQLVQSGAEVKKPGASVKVSCKASGYTFTSYDMHWVRQAPGQGLEWMGRIDPQSGGIKYAQKFQGRATLTVDTSTSTAYMELSRLRSDDTAVYYCARWDYGGYFDVWGQGTLVTVSS
VL: DIQMTQSPSSLSASVGDRVTITCRASQDIYNYLNWYQQKPGKAVKLLIYYTSRLETGVPSRFSGSGSGTDYTLTISSLQPEDFATYFCQQGDTLPWTFGQGTKLEIKR
notes: IgG1 L234A L235A D265S/kappa; also called 78BLH; 51BMD
On to B3, for which, in test [1], the “Average EC50” value is 0.231 µg/mL, the “ELISA assay 2 EC50” value amounted to 0.243 µg/mL and the “ELISA assay #1 EC50” value came to 0.219 µg/mL. In test [2], this molecule returned a dissociation constant Kd of 0.00235 nM, an off-rate constant (koff) of 2.56e-05 s⁻¹ and an on-rate (kon) of 1.09e+07 M⁻¹ s⁻¹. Also, in test [3], the “Fab/mAb KD Ratio” value amounted to 4, binding was characterised by a dissociation constant (Kd) of 0.0876 nM, the off-rate (koff) was determined as 0.00196 s⁻¹ and the kon stood at 2.22e+07 M⁻¹ s⁻¹. In test [4], the “Fab/mAb KD Ratio” value is 3.2, binding was put at a Kd of 0.331 nM, the dissociation rate constant (koff) is 0.00399 s⁻¹ and the kon is 1.21e+07 M⁻¹ s⁻¹.

B4: 19BLM (antibody, human IgG1, kappa, L234A L235A, V domains shown)
VH: EVQLVQSGAEVKKPGASVKVSCKASGYTFTSYDMHWVRQAPGQGLEWMGRIDPQSGGIKYAQKFQGRATLTVDTSTSTAYMELSRLRSDDTAVYYCARYDHGGYFDVWGQGTLVTVSS
VL: DIQMTQSPSSLSASVGDRVTITCRASQDIYNYLNWYQQKPGKAVKLLIYYTSYLETGVPSRFSGSGSGTDYTLTISSLQPEDFATYFCQQGDTLPWTFGQGTKLEIKR
notes: IgG1 L234A L235A D265S/kappa; also called 82BLH; 55BMD
B4: in test [1], the “Average EC50” value came out at 0.179 µg/mL, the “ELISA assay 2 EC50” value is 0.205 µg/mL and the “ELISA assay #1 EC50” value came to 0.152 µg/mL. In test [2], this molecule came in with a dissociation constant (Kd) of 0.068 nM, a koff of 1.98e-06 s⁻¹ and a kon of 29200 M⁻¹ s⁻¹. For the same molecule, in test [3], the “Fab/mAb KD Ratio” value was 13.3, the Kd worked out at 0.178 nM, the koff is 0.014 s⁻¹ and the kon is 7.82e+07 M⁻¹ s⁻¹. Further, in test [4], the “Fab/mAb KD Ratio” value amounted to 5.5, the Kd came out at 3.43 nM, the koff was found to be 0.0365 s⁻¹ and the on-rate (kon) turned out to be 1.07e+07 M⁻¹ s⁻¹.

B5: 11BLM (antibody, human IgG1, kappa, L234A L235A, V domains shown)
VH: EVQLVQSGAEVKKPGASVKVSCKASGYTFTSYDMHWVRQAPGQGLEWMGRIDPQSGGIRYAQKFQGRATLTVDTSTSTAYMELSRLRSDDTAVYYCARWDYGGYFDVWGQGTLVTVSS
VL: DIQMTQSPSSLSASVGDRVTITCRASQDIYNYLNWYQQKPGKAVKLLIYYTSVLETGVPSRFSGSGSGTDYTLTISSLQPEDFATYFCQQGDTLPWTFGQGTKLEIKR
notes: IgG1 L234A L235A D265S/kappa; also called 74BLH; 47BMD
Regarding B5, in test [1], the “Average EC50” value was 0.083 µg/mL, the “ELISA assay 2 EC50” value turned out to be 0.112 µg/mL and the “ELISA assay #1 EC50” value turned out to be 0.0539 µg/mL. Further, in test [2], the dissociation constant (Kd) came out at 0.00133 nM, the koff was found to be 8.14e-06 s⁻¹ and the kon was found to be 1.63e+07 M⁻¹ s⁻¹. For the same molecule, in test [3], the “Fab/mAb KD Ratio” value came out at 1.7, the Kd was 0.026 nM, the dissociation rate constant (koff) came to 0.000374 s⁻¹ and the kon was determined as 1.47e+07 M⁻¹ s⁻¹. Besides, in test [4], the “Fab/mAb KD Ratio” value stood at 1.3, binding was characterised by a dissociation constant (Kd) of 0.133 nM, the koff is 0.000892 s⁻¹ and the on-rate constant (kon) was found to be 6.75e+06 M⁻¹ s⁻¹.

B6: 07BLM (antibody, human IgG1, kappa, L234A L235A, V domains shown)
VH: EVQLVQSGAEVKKPGASVKVSCKASGYTFTSYDMHWVRQAPGQGLEWMGRIDPQSGGIRYAQKFQGRATLTVDTSTSTAYMELSRLRSDDTAVYYCARWDYGGYFDVWGQGTLVTVSS
VL: DIQMTQSPSSLSASVGDRVTITCRASQDIYSYLNWYQQKPGKAVKLLIYYTSNLETGVPSRFSGSGSGTDYTLTISSLQPEDFATYFCQQGDTLPWTFGQGTKLEIKR
notes: IgG1 L234A L235A D265S/kappa; also called 70BLH; 43BMD
With B6, in test [1], the “Average EC50” value worked out at 0.076 µg/mL, the “ELISA assay 2 EC50” value turned out to be 0.119 µg/mL and the “ELISA assay #1 EC50” value worked out at 0.0332 µg/mL. In addition, in test [2], binding was put at a Kd of 0.00224 nM, the koff worked out at 2.82e-05 s⁻¹ and the on-rate constant (kon) was 1.28e+07 M⁻¹ s⁻¹. In test [3], the “Fab/mAb KD Ratio” value turned out to be 0.3, the dissociation constant (Kd) came out at 0.047 nM, the koff was found to be 0.000671 s⁻¹ and the on-rate constant (kon) came to 1.45e+07 M⁻¹ s⁻¹. Moreover, in test [4], the “Fab/mAb KD Ratio” value turned out to be 2.2; the affinity, expressed as Kd, was 0.155 nM; the off-rate (koff) was found to be 0.00131 s⁻¹; the kon came to 8.47e+06 M⁻¹ s⁻¹.

B7: 18BLM (antibody, human IgG1, kappa, L234A L235A, V domains shown)
VH: EVQLVQSGAEVKKPGASVKVSCKASGYTFTSYDMHWVRQAPGQGLEWMGRIDPQSGGIKYAQKFQGRATLTVDTSTSTAYMELSRLRSDDTAVYYCARYDHGGYFDVWGQGTLVTVSS
VL: DIQMTQSPSSLSASVGDRVTITCRASQDIYNYLNWYQQKPGKAVKLLIYYTSRLETGVPSRFSGSGSGTDYTLTISSLQPEDFATYFCQQGDTLPWTFGQGTKLEIKR
notes: IgG1 L234A L235A D265S/kappa; also called 81BLH; 54BMD
With B7, in test [1], the “Average EC50” value came to 0.052 µg/mL, the “ELISA assay 2 EC50” value was found to be 0.006 µg/mL and the “ELISA assay #1 EC50” value stood at 0.0982 µg/mL. In test [2], this molecule registered a Kd of 0.0621 nM, a dissociation rate constant (koff) of 6.09e-06 s⁻¹ and an on-rate (kon) of 98300 M⁻¹ s⁻¹. Further, in test [3], the “Fab/mAb KD Ratio” value turned out to be 3.3; the affinity, expressed as Kd, was 0.959 nM; the koff is 0.00518 s⁻¹; the on-rate constant (kon) was 5.4e+06 M⁻¹ s⁻¹. Further, in test [4], the “Fab/mAb KD Ratio” value is 1.8, the Kd came out at 9.11 nM, the koff turned out to be 0.0489 s⁻¹ and the kon is 5.65e+06 M⁻¹ s⁻¹.
